Experimental data from paper PMC2756588.

How the values were obtained:
Experiment in all cases: SPOT array
[1] = molecular target: Bem1-2, P29366; settings: median of control spots 4347
[2] = molecular target: T1, Pin3, Q06449; settings: median of control spots 2171
T1 sequence (Q06449 53-122, looked up): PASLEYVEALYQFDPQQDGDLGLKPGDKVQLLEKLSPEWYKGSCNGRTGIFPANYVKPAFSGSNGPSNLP

[3] = molecular target: T2, Lsb1, P53281; settings: median of control spots 388
T2 sequence (P53281 45-122, looked up): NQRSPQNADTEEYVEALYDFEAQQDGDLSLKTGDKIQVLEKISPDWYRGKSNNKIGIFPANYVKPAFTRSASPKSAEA

[4] = molecular target: T3, Boi1, P38041; settings: median of control spots 1162
T3 sequence (P38041 1-86, looked up): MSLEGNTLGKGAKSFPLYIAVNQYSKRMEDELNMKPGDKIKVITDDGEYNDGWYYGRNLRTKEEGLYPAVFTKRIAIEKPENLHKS

[5] = molecular target: Rvs167, P39743; settings: median of control spots 2707
Rvs167, P39743, sequence (P39743 419-482): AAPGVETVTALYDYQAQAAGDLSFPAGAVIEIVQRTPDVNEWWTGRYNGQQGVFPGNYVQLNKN

[6] = molecular target: T4, Abp1, P15891; settings: median of control spots 935
T4 sequence (P15891 535-592, looked up): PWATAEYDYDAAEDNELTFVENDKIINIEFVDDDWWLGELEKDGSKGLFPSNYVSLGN

[7] = molecular target: T5, Lsb3, P43603; settings: median of control spots 406
T5 sequence (P43603 385-451, looked up): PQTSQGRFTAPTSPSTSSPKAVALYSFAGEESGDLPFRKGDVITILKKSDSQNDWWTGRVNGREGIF

[8] = molecular target: T6, Cdc25, P04821; settings: median of control spots 969
T6 sequence (P04821 50-136, looked up): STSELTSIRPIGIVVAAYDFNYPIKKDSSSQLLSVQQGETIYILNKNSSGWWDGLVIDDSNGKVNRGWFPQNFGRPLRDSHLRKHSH

[9] = molecular target: T7, Fus1, P11710; settings: median of control spots 1200
T7 sequence (P11710 432-512, looked up): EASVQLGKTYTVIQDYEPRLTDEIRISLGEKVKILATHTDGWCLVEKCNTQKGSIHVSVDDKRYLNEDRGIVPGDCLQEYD

[10] = molecular target: T8, Lsb4, P32793; settings: median of control spots 397
T8 sequence (P32793 402-468, looked up): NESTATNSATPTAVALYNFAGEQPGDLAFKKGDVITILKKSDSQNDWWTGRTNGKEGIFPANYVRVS

[11] = molecular target: T9, Bud14, P27637; settings: median of control spots 956
T9 sequence (P27637 247-328, looked up): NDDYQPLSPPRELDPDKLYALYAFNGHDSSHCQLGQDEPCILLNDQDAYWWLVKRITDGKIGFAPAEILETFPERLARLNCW

[12] = molecular target: T10, Hof1, Q05080; settings: median of control spots 4086
T10 sequence (Q05080 590-669, looked up): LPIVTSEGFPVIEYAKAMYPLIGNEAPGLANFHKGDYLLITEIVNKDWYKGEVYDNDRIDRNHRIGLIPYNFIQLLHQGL

[13] = molecular target: Myo3, P36006; settings: median of control spots 468
[14] = molecular target: T11, Sla1-2, P32790; settings: median of control spots 712
T11 sequence (P32790 60-140, looked up): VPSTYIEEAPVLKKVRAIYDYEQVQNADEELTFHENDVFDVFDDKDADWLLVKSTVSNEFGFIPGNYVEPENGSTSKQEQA

[15] = molecular target: Bem1-1, P29366; settings: median of control spots 4282
Bem1-1, P29366, sequence (P29366 55-141): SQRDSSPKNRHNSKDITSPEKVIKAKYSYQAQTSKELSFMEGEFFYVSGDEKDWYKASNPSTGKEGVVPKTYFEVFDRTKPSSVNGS

[16] = molecular target: GST; settings: median of control spots 978
[17] = molecular target: Sho1, P40073; settings: median of control spots 1148
Sho1, P40073, sequence (P40073 287-367): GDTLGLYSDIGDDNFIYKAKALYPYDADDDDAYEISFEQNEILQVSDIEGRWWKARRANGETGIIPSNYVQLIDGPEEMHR

[18] = molecular target: T12, Bzz1-2, P38822; settings: median of control spots 4538
T12 sequence (P38822 568-633, looked up): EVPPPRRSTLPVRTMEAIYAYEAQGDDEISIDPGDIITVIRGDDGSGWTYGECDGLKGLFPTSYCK

[19] = molecular target: T13, Cyk3, Q07533; settings: median of control spots 1451
T13 sequence (Q07533 1-83, looked up): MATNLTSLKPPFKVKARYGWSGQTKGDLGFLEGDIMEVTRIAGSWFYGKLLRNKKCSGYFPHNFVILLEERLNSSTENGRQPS

[20] = molecular target: T14, Sla1-3, P32790; settings: median of control spots 5475
T14 sequence (P32790 344-424, looked up): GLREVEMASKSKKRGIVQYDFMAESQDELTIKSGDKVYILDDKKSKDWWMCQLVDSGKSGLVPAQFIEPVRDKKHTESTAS

[21] = molecular target: T15, Myo5, Q04439; settings: median of control spots 471
T15 sequence (Q04439 1072-1160, looked up): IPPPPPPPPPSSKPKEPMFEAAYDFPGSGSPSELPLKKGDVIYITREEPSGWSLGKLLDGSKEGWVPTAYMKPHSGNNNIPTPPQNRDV

[22] = molecular target: T16, Boi2, P39969; settings: median of control spots 1161
T16 sequence (P39969 32-116, looked up): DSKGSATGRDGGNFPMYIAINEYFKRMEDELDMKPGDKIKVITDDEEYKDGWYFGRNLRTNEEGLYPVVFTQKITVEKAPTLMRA

[23] = molecular target: T17, Bbc1, P47068; settings: median of control spots 796
T17 sequence (P47068 1-78, looked up): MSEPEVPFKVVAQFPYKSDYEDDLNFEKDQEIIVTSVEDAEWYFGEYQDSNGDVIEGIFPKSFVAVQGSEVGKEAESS

[24] = molecular target: T18, Nbp2, Q12163; settings: median of control spots 357
T18 sequence (Q12163 103-180, looked up): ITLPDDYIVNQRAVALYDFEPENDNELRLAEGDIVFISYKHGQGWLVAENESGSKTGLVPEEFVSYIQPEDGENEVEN

[25] = molecular target: T19, Hse1, P38753; settings: median of control spots 1727
T19 sequence (P38753 208-285, looked up): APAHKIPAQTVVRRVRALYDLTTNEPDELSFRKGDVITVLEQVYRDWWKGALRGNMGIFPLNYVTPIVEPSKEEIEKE

[26] = molecular target: T20, Pex13, P80667; settings: median of control spots 1341
T20 sequence (P80667 295-386, looked up): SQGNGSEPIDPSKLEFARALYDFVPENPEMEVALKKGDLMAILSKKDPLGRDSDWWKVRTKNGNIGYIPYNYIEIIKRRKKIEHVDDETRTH

[27] = molecular target: T21, Bzz1-1, P38822; settings: median of control spots 4446
T21 sequence (P38822 478-572, looked up): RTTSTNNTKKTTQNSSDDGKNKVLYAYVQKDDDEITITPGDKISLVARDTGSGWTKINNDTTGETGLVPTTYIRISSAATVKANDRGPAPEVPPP

Bem1-2, P29366, sequence (P29366 139-227): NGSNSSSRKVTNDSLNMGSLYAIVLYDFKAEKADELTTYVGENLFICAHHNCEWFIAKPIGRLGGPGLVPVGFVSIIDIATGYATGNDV

GDHPKGPPPPPPPDE was tested, and the SPOT intensity [1] was 3, the SPOT intensity [2] was 2 and the SPOT intensity [3] was 0. It also gave an SPOT intensity [4] of 4, an SPOT intensity [5] of 0 and an SPOT intensity [6] of 0. The SPOT intensity [7] was 0, the SPOT intensity [8] was 3 and the SPOT intensity [9] was 0. It also gave an SPOT intensity [10] of 0, an SPOT intensity [11] of 1 and an SPOT intensity [12] of 0. For the same binder, the SPOT intensity [13] was 371, the SPOT intensity [14] was 0 and the SPOT intensity [15] was 0. For the same binder, the SPOT intensity [16] was 0, the SPOT intensity [17] was 0 and the SPOT intensity [18] was 0. For the same binder, the SPOT intensity [19] was 0, the SPOT intensity [20] was 2 and the SPOT intensity [21] was 227. The SPOT intensity [22] was 1, the SPOT intensity [23] was 1 and the SPOT intensity [24] was 0. It also gave an SPOT intensity [25] of 0, an SPOT intensity [26] of 0 and an SPOT intensity [27] of 1.

TPRLSLPRLPNKHHW was tested, and the SPOT intensity [1] was 3, the SPOT intensity [2] was 7 and the SPOT intensity [3] was 0. The SPOT intensity [4] was 4, the SPOT intensity [5] was 2 and the SPOT intensity [6] was 37. The SPOT intensity [7] was 0, the SPOT intensity [8] was 10 and the SPOT intensity [9] was 0. It also gave an SPOT intensity [10] of 0, an SPOT intensity [11] of 9 and an SPOT intensity [12] of 1600. The SPOT intensity [13] was 0, the SPOT intensity [14] was 0 and the SPOT intensity [15] was 0. For the same binder, the SPOT intensity [16] was 0, the SPOT intensity [17] was 35 and the SPOT intensity [18] was 1. The SPOT intensity [19] was 0, the SPOT intensity [20] was 0 and the SPOT intensity [21] was 0. For the same binder, the SPOT intensity [22] was 0, the SPOT intensity [23] was 2 and the SPOT intensity [24] was 0. For the same binder, the SPOT intensity [25] was 30, the SPOT intensity [26] was 45 and the SPOT intensity [27] was 0.

With SRSKPLPLTPNSKYN the SPOT intensity [1] was 1, the SPOT intensity [2] was 19 and the SPOT intensity [3] was 0. The SPOT intensity [4] was 2, the SPOT intensity [5] was 1 and the SPOT intensity [6] was 109. The SPOT intensity [7] was 0, the SPOT intensity [8] was 2 and the SPOT intensity [9] was 0. The SPOT intensity [10] was 2, the SPOT intensity [11] was 5 and the SPOT intensity [12] was 0. For the same binder, the SPOT intensity [13] was 0, the SPOT intensity [14] was 3 and the SPOT intensity [15] was 0. The SPOT intensity [16] was 0, the SPOT intensity [17] was 1030 and the SPOT intensity [18] was 4. It also gave an SPOT intensity [19] of 1, an SPOT intensity [20] of 7 and an SPOT intensity [21] of 0. For the same binder, the SPOT intensity [22] was 0, the SPOT intensity [23] was 5 and the SPOT intensity [24] was 0. The SPOT intensity [25] was 1, the SPOT intensity [26] was 21 and the SPOT intensity [27] was 2.

For DHPKGPPPPPPPDEK, the SPOT intensity [1] was 0, the SPOT intensity [2] was 6 and the SPOT intensity [3] was 0. The SPOT intensity [4] was 0, the SPOT intensity [5] was 0 and the SPOT intensity [6] was 0. The SPOT intensity [7] was 0, the SPOT intensity [8] was 6 and the SPOT intensity [9] was 0. It also gave an SPOT intensity [10] of 0, an SPOT intensity [11] of 1 and an SPOT intensity [12] of 2. It also gave an SPOT intensity [13] of 431, an SPOT intensity [14] of 0 and an SPOT intensity [15] of 8. For the same binder, the SPOT intensity [16] was 0, the SPOT intensity [17] was 0 and the SPOT intensity [18] was 12. The SPOT intensity [19] was 0, the SPOT intensity [20] was 12 and the SPOT intensity [21] was 298. For the same binder, the SPOT intensity [22] was 0, the SPOT intensity [23] was 0 and the SPOT intensity [24] was 1. The SPOT intensity [25] was 0, the SPOT intensity [26] was 0 and the SPOT intensity [27] was 72.
